The text below walks through data of publication PMC4167758.

One assay deals with SelK U92S (Homo sapiens) (UniProt Q9Y6D0). Description: SDS-PAGE at high protein concentration.
Assay [1] concerns the target SelK U92C (Homo sapiens) (UniProt Q9Y6D0). Description: redox titration with gel shift on non-reducing SDS-PAGE. (In general: In EMSA bound probe runs differently from free probe, usually more slowly.)
The target is the same in assay [2]. Description: SDS-PAGE under non-reducing conditions.
The target is the same in assay [3]. Description: electrospray ionization mass spectrometry.

As to “SelK U92S (from UniProt Q9Y6D0 2-94) (natural protein)”, the stoichiometry N with SelK U92S (Homo sapiens) was determined as 2.
With “SelK U92C (from UniProt Q9Y6D0 2-94) (natural protein)”, the stoichiometry N with SelK U92C (Homo sapiens) [1], with SelK U92C (Homo sapiens) [2] and with SelK U92C (Homo sapiens) [3] was 2 in each case.

What is called stoichiometry N is the number of molecules, sites or subunits per partner or assembly.
